Experiment [1] concerns the target His-△237 (T. vaginalis). Nature of the experiment: ELISA; F-actin. (In general: ELISA stands for enzyme-linked immunosorbent assay.)
For experiment [2], the target named is His-△237 (T. vaginalis). The experiment can be described thus: ELISA; G-actin.

B1: GST-Tvactin (natural protein)
chain: not shown
B1: the Kd came out at 10.3 µM in the experiment with His-△237 [1] and 9.01 µM in the experiment with His-△237 [2].

A word on the Kd: it is the constant that tells how readily two partners part at equilibrium. Low values mean tighter binding, high ones weaker binding.

The values above are taken from doi:10.1101/2022.06.09.495492 (2022).
